The record followed here is patent publication US20230027739A1, “ANTIGEN-BINDING AND ANTIGEN D[…]” (Entrada Therapeutics, Inc., priority 2021, published 2023).

The target of this assay is KRas in human cancer cell lines with KRas mutations (HCT-116, SW480, LS180, LS174T) (human), P01116. Description: cell-based or functional assay.

B1: K19-Cys-EEV12 (designed binder)
chain: MHHHHHHENLYFQGDLGKKLLEAARAGQDDEVRILMANGADVNASDRWGWTPLHLAAWWGHLEIVEVLLKRGADVSAADLHGQSPLHLAAMVGHLEIVEVLLKYGADVNAKDTMGATPLHLAARSGHLEIVEELLKNGADMNAQDKFGKTTFDISTDNGNEDLAEILQKLC
modifications: not checked
Turning to B1, the IC50 of cell viability (CellTiter-Glo, 72 h) on KRas mutant cell lines was 2 to 8 µM.
